No end group written: not given here.
What was measured:
LGR8 (RXFP2) = LGR8 (RXFP2) (Homo sapiens, UniProt Q8WXD0); test: Competition with Europium labelled INSL3 binding to HEK-293T cells expressing LGR8; parameters: expressed in transfected cells; details: LGR8 HEK-293T, FIG. 10; for effect on binding of Europium-INSL3: 0.01 nM-10 μM
Experimental: The ability of Peptides P74C13V (SEQ ID NO: 10) and P59C13V (SEQ ID NO: 6) to compete with the binding of known ligands to LGR7 or LGR8 was tested by testing the ability of P74C13V (SEQ ID NO: 10) and P59C13V (SEQ ID NO: 6) to compete with the binding of Europium labelled H2 Relaxin or INSL3 (manufactured by the H. Florey institute) to stable HEK-293T cell lines expressing LGR7 or LGR8 respectively.
HEK-293T cell lines expressing LGR8 (RXFP2) were treated with Europium labeled INSL3 (manufactured by the H. Florey institute). The cells were then treated with decimal increasing concentrations (0.01 nM, 0.1 nM, 1 nM, 10 nM, 100 nM, 1 μM, 10 μM) of un-labeled INSL3 (as a positive control) and the tested peptides P59C13V (P59) (SEQ ID NO: 6), P59C13V-Amide (P59-Amide) (SEQ ID NO: 5), P59-S-Amide (P59S) (SEQ ID NO: 1) and P74C13V (P74) (SEQ ID NO: 10). The binding results are shown as a percentage of specific binding of the radioactive test INSL3 (where 100% is the baseline radiation level). […] This means that the binding affinity of the Eur-INSL3 was increased by binding/activity of the P59C13V (P59) (SEQ ID NO: 6) peptide on the LGR8 receptor.

LGR7 (RXFP1) = molecular target: T1, LGR7 (RXFP1) (Homo sapiens, UniProt Q9HBX9); test: pCRE-β-gal reporter assay in Forskolin-treated CHO-K1 cells transiently transfected with LGR7; format: cell-based; parameters: expressed in transfected cells; host or cells: CHO-K1 (transient); details: 5 uM Forskolin, FIG. 7A-B
T1 sequence (Q9HBX9 1-757): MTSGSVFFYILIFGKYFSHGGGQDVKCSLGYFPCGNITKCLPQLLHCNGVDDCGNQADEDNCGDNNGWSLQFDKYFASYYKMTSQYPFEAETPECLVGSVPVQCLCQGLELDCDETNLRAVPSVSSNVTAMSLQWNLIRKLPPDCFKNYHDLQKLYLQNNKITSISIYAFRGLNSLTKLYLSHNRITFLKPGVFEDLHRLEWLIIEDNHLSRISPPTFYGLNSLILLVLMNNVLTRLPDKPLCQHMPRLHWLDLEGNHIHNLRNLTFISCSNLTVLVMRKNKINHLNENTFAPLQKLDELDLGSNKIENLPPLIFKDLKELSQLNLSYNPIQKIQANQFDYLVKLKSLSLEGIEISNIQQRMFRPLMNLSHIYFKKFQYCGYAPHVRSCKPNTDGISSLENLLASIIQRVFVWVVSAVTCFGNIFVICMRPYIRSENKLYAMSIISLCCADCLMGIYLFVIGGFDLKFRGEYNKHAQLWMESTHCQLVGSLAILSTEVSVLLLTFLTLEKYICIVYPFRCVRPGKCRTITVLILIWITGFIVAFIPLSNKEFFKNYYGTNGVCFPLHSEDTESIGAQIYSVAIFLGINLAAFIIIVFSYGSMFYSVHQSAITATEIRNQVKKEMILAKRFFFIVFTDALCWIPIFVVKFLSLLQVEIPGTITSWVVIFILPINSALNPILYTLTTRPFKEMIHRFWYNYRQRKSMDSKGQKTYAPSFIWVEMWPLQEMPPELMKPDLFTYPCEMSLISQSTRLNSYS
Experimental: The ability of P74C13V (P74) (SEQ ID NO: 10) and P59C13V (P59) and P59C13V-Amide (P59-Amide) (SEQ ID NO: 6 and 5 respectively) to activate LGR7 (RXFP1) and LGR8 (RXFP2) was further tested by testing the ability of these peptides to influence cAMP activity induced by 5 μM Forskolin in CHO-K1 cells transiently transfected with LGR7/pCRE-β-gal or LGR8/pCRE-β-gal as compared to H2 relaxin and INSL3 respectively.
LGR7 transfected CHO-K1 cells were treated with 5 uM of Forskolin to stimulate cAMP. The cells were then challenged with increasing doses of H2 Relaxin (as positive control), P74C13V (P74) (SEQ ID NO: 10), P59C13V with (P59-Amide) and without (P59) amide and P59S-Amide (P59S) (SEQ ID NO: 5, 6 and 1, respectively). […] The results are presented as a percentage of Forskolin activity at increasing concentrations of each peptide (represented in log [M]). The baseline for the experiment was the activity of Forskolin alone (100%). Each point represents three unrelated repeats for each experiment together with their standard error bars.

Chain of LGR8 (RXFP2) (Q8WXD0 whole entry): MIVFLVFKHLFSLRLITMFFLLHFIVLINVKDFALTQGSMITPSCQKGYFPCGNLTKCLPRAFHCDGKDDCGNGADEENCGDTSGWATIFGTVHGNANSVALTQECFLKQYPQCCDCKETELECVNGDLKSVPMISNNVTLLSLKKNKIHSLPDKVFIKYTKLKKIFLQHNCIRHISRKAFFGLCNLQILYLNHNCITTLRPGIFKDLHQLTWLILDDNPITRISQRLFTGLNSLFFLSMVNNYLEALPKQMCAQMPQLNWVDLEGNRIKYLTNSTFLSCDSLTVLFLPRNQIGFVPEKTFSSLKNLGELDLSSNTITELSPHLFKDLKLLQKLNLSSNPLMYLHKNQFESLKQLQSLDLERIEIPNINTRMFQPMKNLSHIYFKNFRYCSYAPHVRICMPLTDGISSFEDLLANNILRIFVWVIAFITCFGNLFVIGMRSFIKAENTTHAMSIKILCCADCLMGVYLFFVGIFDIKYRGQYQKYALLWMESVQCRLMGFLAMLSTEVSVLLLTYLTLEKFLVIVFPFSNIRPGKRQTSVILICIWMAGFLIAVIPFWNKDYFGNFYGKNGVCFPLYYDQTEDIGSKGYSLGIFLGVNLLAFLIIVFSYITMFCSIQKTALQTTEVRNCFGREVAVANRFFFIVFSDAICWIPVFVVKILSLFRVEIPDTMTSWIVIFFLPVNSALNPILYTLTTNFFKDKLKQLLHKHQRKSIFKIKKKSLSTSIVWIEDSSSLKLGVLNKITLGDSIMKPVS

Row | Substance | effect on binding of Europium-INSL3 (LGR8 (RXFP2)) | specific binding of Europium-INSL3 (LGR8 (RXFP2); at 1 nM and higher concentrations, 100% is baseline) [%] | CRE activation pattern relative to Forskolin (LGR7 (RXFP1))
1 | AYAAFSV-Amide (AYAAFSV-NH2) [Peptide P59-S-Amide] | less apparent | – | –
2 | GQKGQVGPPGAAVRRAYAAFSV [Peptide P59C13V] | positive cooperative or allosteric effect | ~125 | dual activation pattern effect
3 | GQKGQVGPPGAAVRRAYAAFSV-Amide (GQKGQVGPPGAAVRRAYAAFSV-NH2) [P59C13V-Amide] | less apparent | – | slight activation pattern
4 | GQKGQVGPPGAAVRRAYAAFSVGRRAYAAFSV-OH [Peptide P74C13V] | less apparent | – | bell-shaped activation pattern
5 | H2 Relaxin: H2 Relaxin (ACS), positive control, known ligand of LGR7 (RXFP1) [reference compound] | – | – | increased activation at higher concentrations

— patent US8492329B2, “Bioactive peptides and methods of using same” (Compugen Ltd., priority 2007, dated 2013)
